Assay results from patent US20180009881A1 (VHSQUARED, published 2018).
Read-outs that look alike come from different tables or passages of the source.

Key:
[1] = biological target: T1, recombinant soluble human IL-6R (human, UniProt P08887 20-365); test: Standard gp130 ELISA: ICVD mixed with soluble human IL-6R, then IL-6; complex captured on coated gp130 (competition)
T1 construct: extracellular domain; Printed only as 'soluble'; read as the extracellular domain; also called hIL-6R; sIL-6R
T1 sequence (looked up): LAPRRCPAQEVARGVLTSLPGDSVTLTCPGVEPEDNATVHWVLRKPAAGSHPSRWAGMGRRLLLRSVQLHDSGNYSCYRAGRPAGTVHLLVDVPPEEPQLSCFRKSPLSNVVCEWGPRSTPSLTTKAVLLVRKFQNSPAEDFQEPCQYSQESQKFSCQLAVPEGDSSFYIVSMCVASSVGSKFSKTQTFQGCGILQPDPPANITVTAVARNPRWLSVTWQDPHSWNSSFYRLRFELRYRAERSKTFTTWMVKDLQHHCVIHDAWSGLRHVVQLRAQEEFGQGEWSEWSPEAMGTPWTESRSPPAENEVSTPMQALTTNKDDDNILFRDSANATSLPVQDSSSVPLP

recombinant human TNF [2] = biological target: T2, recombinant human TNF (human, UniProt P01375 77-233); test: Standard TNFR2/TNF interference ELISA: ICVD mixed with human TNF, TNF captured on coated Enbrel (competition)
T2 construct: also called TNF-alpha; TNFα

recombinant human TNF [3] = biological target: T2, recombinant human TNF; test: Standard TNFR2/TNF interference ELISA (competition), against ID32F
[4] = biological target: T1, recombinant soluble human IL-6R; test: Standard gp130 ELISA: ICVD mixed with soluble human IL-6R, then IL-6; complex captured on coated gp130 (competition); remark: listed apart in the source

T2 sequence (P01375 77-233 limits assumed): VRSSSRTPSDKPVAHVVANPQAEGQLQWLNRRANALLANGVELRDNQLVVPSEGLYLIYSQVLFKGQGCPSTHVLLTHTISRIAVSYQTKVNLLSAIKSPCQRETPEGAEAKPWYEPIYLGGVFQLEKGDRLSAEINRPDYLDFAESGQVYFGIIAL

B1: anti-IL-6R ICVD 5G9 (VHH)
VHH: EVQLVESGGGLVQAGGSTRLTCKASGSIFNINSINVMAWYRQAPGKQRELVAIIGKGGGTNYADFVKGRFTISRDAAKNTVNLQMNSLKPEDTAVYYCYADYEDRDSPFNASWGQGTQVTVSS
B1 was tested, and the EC50 [1] was 0.09 nM.

B2: anti-IL-6R ICVD ID-54V (VHH)
VHH: EVQLVESGGGLVQAGGSTRLTCKASGSIFNINSINVMAWYRQAPGKQRELVAIIGKGGGTNYADFVKGRFTISRDAAKNTVNLQMNSLKPEDTAVYYCYADYEDHDSPFNASWGQGTQVTVSS
notes: also called 5G9 with R105H
Work on B2 yielded an EC50 [1] of 0.15 nM.

B3: anti-TNF-alpha ICVD ID8F-EV (VHH)
VHH: EVQLVESGGGLVQPGGSLKLSCAASGFDFSSHWMYWVRQAPGKELEWLSEINTNGLITHYGDSVKGRFTVSRNNAANKMYLELTRLEPEDTALYYCARNQKGLNKGQGTQVTVSS
notes: also called Q65B1 with a K59H substitution; K59H; not shown: C-terminal Flag-His6 tag
B3 was tested, and the EC50 (recombinant human TNF [2]) was 0.139 nM.

B4: anti-TNF-alpha ICVD Q65B1 (VHH)
VHH: EVQLVESGGGLVQPGGSLKLSCAASGFDFSSHWMYWVRQAPGKELEWLSEINTNGLITKYGDSVKGRFTVSRNNAANKMYLELTRLEPEDTALYYCARNQKGLNKGQGTQVTVSS
notes: also called K59; not shown: C-terminal Flag-His6 tag
B4 was tested, and the EC50 (recombinant human TNF [2]) was 0.0984 nM.

B5: anti-TNF-alpha ICVD ID43F (VHH)
VHH: EVQLVESGGGLVQPGGSLKLSCAASGFDFSSHWMYWVRQAPGKELEWLSEINTNGLITAYGDSVKGRFTVSRNNAANKMYLELTRLEPEDTALYYCARNQKGLNKGQGTQVTVSS
notes: also called Q65B1 with a K59A substitution; K59A; not shown: C-terminal Flag-His6 tag
In the case of B5, the EC50 (recombinant human TNF [2]) is reported as 0.603 nM.

B6: anti-TNF-alpha ICVD ID44F (VHH)
VHH: EVQLVESGGGLVQPGGSLKLSCAASGFDFSSHWMYWVRQAPGKELEWLSEINTNGLITQYGDSVKGRFTVSRNNAANKMYLELTRLEPEDTALYYCARNQKGLNKGQGTQVTVSS
notes: also called Q65B1 with a K59Q substitution; K59Q; not shown: C-terminal Flag-His6 tag
In the case of B6, the EC50 (recombinant human TNF [2]) is reported as 0.245 nM.

B7: anti-TNF-alpha ICVD ID34F (VHH)
VHH: EVQLVESGGGLVQPGGSLKLSCAASGFDFSSHWMYWVRQAPGKELEWLSEINTNGLITHYGDSVKGRFTVSRNNAANKMYLELTRLEPEDTALYYCARNQHGLNKGQGTQVTVSS
notes: also called Q65B1 with K59H and K101H
B7: binds (recombinant human TNF [3]).

B8: anti-IL-6R ICVD 7F6 (VHH)
VHH: EVQLVESGGGLVQAGGSTRLTCLASGSISSINVIGWYRQAPGKQRELVAMIGRGEGANYGDFAKGRFTISRDNSKNTVYLQMNSLKPEDTAVYYCYADYEDRDSPFNGSWGQGTQVTVSS
For B8, the EC50 [4] was 0.15 nM.

B9: anti-IL-6R ICVD ID-3V (VHH)
VHH: EVQLVESGGGLVQAGGSTRLTCLASGSISSINVIGWYRQAPGKQRELVAMIGRGEGANYGDFAKGRFTISRDNSKNTVYLQMNSLKPEDTAVYYCYADYEDHDSPFNGSWGQGTQVTVSS
notes: also called 7F6 with R102H
In the case of B9, the EC50 [4] is reported as 0.16 nM.
